{"source": "patent CN118050507A", "molecular_target": "O型FMDV流行毒株 (Foot-and-mouth disease virus serotype O)", "assay": "cell-based or functional assay"}
{"binder": "O型口蹄疫病毒中和抗体Ab1 (VHH) VHH: QVQLQESGGGLVQPGGSLRLSCAASGTPFSGGSINEISINHLGWYRQAPGKERELVAAITRGGSTYYADSVKGRFAISRDDAKKMVYLQMNSLKPEDTAVYYCNGLRASTAQWEESETTWGQGTQVTVSS", "values": [{"measurement": "Neu 50 (病毒中和试验)", "result": 0.8, "unit": "µmol/L"}]}
